Test results reported in paper PMC3772097.

These substances were tested on ORC (origin recognition complex) (Saccharomyces cerevisiae) (assay: EMSA). Conditions: 25 mM Tris-HCl pH 8.0, 5 mM MgCl2, 150 mM KCl, 40 ug BSA, 5% glycerol, 5 mM DTT, 1 ug calf-thymus DNA, 2 mM ATP; 5 pM probe, ORC 0.3-30 nM; 25 C 20 min; 3.5% ….

Compared with ARS105 probe, ARS201 probe is lower in Kd: > 419 nM for the first, 20.1 nM for the second.

Compared with ARS214 probe, ARS219.5 probe is higher in Kd: 41.3 nM for the first, > 419 nM for the second.

Going from ARS305 probe to ARS317 (HMR-E) probe, the Kd falls from 33.1 nM to 7.22 nM (4.6-fold). The second binds more tightly here.

Going from ARS416 (ARS1) probe to ARS422 probe, the Kd falls from 35.1 nM to 9.85 nM (3.6-fold). The second binds more tightly here.

First: ARS423 probe
Second: ARS428 probe
The Kd of the first is 14-fold lower: 6.76 nM for the first, 91.6 nM for the second.

First: ARS512 probe
Second: ARS514 probe
The Kd of the first is 13-fold higher: 55.1 nM for the first, 4.12 nM for the second. The second binds more tightly here.

First: ARS516 probe
Second: ARS604 probe
The Kd of the first is 2.2-fold lower: 27.8 nM for the first, 61 nM for the second. The first binds more tightly here.

ARS716 probe and ARS720 probe are within 1.5-fold of each other in Kd: 39.2 nM for the first, 33.9 nM for the second.

Going from ARS728 probe to ARS818 probe, the Kd rises from 8.38 nM to 94 nM (11-fold).

First: ARS822 probe
Second: ARS824 probe
The Kd of the first is 6.8-fold higher: 260 nM for the first, 38.1 nM for the second. The second binds more tightly here.

Going from ARS911 probe to ARS920 probe, the Kd falls from 87.3 nM to 8.65 nM (10-fold).

Going from ARS1004 probe to ARS1005 probe, the Kd rises from 92.3 nM to > 419 nM. The first binds more tightly here.

Compared with ARS1011 probe, ARS1015 probe is 5.7-fold higher in Kd: 11.1 nM for the first, 63.1 nM for the second.

Compared with ARS1021 probe, ARS1114 probe is 1.9-fold higher in Kd: 17.9 nM for the first, 33.3 nM for the second.

Going from ARS1123 probe to ARS1215 probe, the Kd rises from 12.3 nM to 55.8 nM (4.5-fold). The first binds more tightly here.

Going from ARS1307 probe to ARS1320 probe, the Kd falls from 83.7 nM to 20.9 nM (4-fold).

ARS1323 probe and ARS1325 probe are within 1.5-fold of each other in Kd: 58.6 nM for the first, 63 nM for the second.

Compared with ARS1329 probe, ARS1332 probe is 2.2-fold lower in Kd: 76.8 nM for the first, 35.3 nM for the second.

Going from ARS1405 probe to ARS1413 probe, the Kd rises from 97.2 nM to 419 nM (4.3-fold). The first binds more tightly here.

Compared with ARS1420 probe, ARS1513 probe is 3.2-fold higher in Kd: 17.8 nM for the first, 56.3 nM for the second. The first binds more tightly here.

Going from ARS1521 probe to ARS1528 probe, the Kd rises from 90.1 nM to > 419 nM. The first binds more tightly here.

Going from ARS1529.5 probe to ARS1601 probe, the Kd falls from 192 nM to 32.8 nM (5.9-fold). The second binds more tightly here.

First: ARS1625 probe
Second: ARS1631 probe
The Kd of the first is 3.1-fold lower: 8.67 nM for the first, 26.8 nM for the second.
